Laboratory results as given in US20210009673A1, “METHODS FOR REGULATING BREAST CANCERS” (priority 2018, published 2021).

Test system: EGFR
Assay: tyrosine phosphorylation of EGFR in HUVS cells
Format: cell-based, human
Procedure: FIG. 10: FIG. 10 illustrates: (A), HUVS cells were stimulated with PTN for 2, 5, and 15 minutes. Cell lysates were used to immunoprecipitate EGFR and the immunoprecipitates were analyzed in Western blots probed with anti-phosphotyrosine antibodies. In (B), Lysates from PTN-stimulated HUVS cells that express EGFR were incubated with GST-RPTPβ/ζ D1, GST-RPTPβ/ζ D1 (C1932S), and GST-RPTPβ/ζ D1 (D1900A), a “substrate trap” mutant, which captures the substrate phosphoryl-intermediate in the active site of RPTPβ/ζ with high affinity and specificity. The proteins captured were analyzed in Western blots probed with anti-EGFR antibodies and separately with anti-GST antibodies. In (C), HUVS cells were co-transfected with a full-length EGFR and the vector pC4-Fv1E encoding the Fv domain of FKBP12 needed for enforced dimerization induced by AP20187 (Clackson, Yang et al. 1998) in frame with the intracellular domain of RPTPβ/ζ. AP20187 (2 μM) enforced homodimerization of RPTPβ/ζ and stimulated increase in tyrosine phosphorylation of EGFR 2′, 5′, 10′, and 20′ after stimulation compared with control cells transfected with EGFR alone. (D) A retroviral vector (pSM2) encoding shRNA to “knock down” RPTPβ/ζ was tested in HUVS cells that express endogenous RPTPβ/ζ and EGFR. The cells were stimulated with PTN and cell lysates were used to prepare immunoprecipitates with anti-EGFR antibodies and the immunoprecipitates analyzed in Western blots probed with anti-phosphotyrosine antibodies.
Cell lysates prepared in a lysis buffer containing 50 mM Tris, 150 mM NaCl pH 7.5, 1% NP40, 0.25% sodium deoxycholate, 0.1% SDS, Complete EDTA-free Protease Inhibitor Cocktail (Roche, Indianapolis, Ind.), and 2 mM sodium orthovanadate were pre-cleared by incubation with 2 μg antibodies followed by one hour incubation with protein G-agarose beads. The beads were washed 4 times in the same lysis buffer, eluted in loading buffer containing 240 mM Tris pH 6.8, 40% glycerol, 20% SDS, 2.5% β-mercaptoethanol and 0.01% bromophenol blue and analyzed in Western blots probed with different antibodies as individually described.
PI3K also is activated by an activated Epidermal Growth Factor Receptor (EGFR). We therefore investigated the possibility EGFR is implicated in the translocation of β-catenin to nucleus in PTN-stimulated cells. HUVS were stimulated with PTN for 2, 5, and 15 minutes. Lysates from these cells were immunoprecipitated with anti-EGFR antibodies and the immunoprecipitates were analyzed in Western blots probed with anti-phosphotyrosine antibodies. Tyrosine phosphorylation of EGFR was increased about 5.8-fold at two minutes after HUVS cells were stimulated with PTN, about 11-fold at 5 minutes, and about 5-fold 15 minutes after stimulation with PTN (FIG. 10A).
To establish whether phosphorylation of EGFR is dependent on enforced dimerization of RPTPβ/ζ, which is the consequence of the interaction of PTN with RPTPβ/ζ, HUVS cells were then co-transfected with a full-length EGFR and the vector pC4-Fv1 E. The vector pC4-Fv1 E encodes the Fv domain of FKBP12 in frame with the intracellular domain of RPTPβ/ζ; it effectively enforces dimerization of RPTPβ/ζ when cells are stimulated with AP20187. AP20187 (2 μM) was added to HUVS cells that expressed full-length EGFR and pC4-Fv1 E as above. […]

B1: pleiotrophin (protein, UniProt P21246 33-168, looked up)
Pleiotrophin: GKKEKPEKKVKKSDCGEWQWSVCVPTSGDCGLGTREGTRTGAECKQTMKTQRCKIPCNWKKQFGAECKYQFQAWGECDLNTALKTRTGSLKRALHNAECQKTVTISKPCGKLTKPKPQAESKKKKKEGKKQEKMLD
Q: Which “increase in tyrosine phosphorylation of EGFR” value (“increase” below) (5 minutes after PTN) does the source give for B1 here?
A: The value was “about 11 fold”.

Q: What about the “increase” value (15 minutes after PTN) of the same molecule?
A: The value was “about 5 fold”.

Q: And the “tyrosine phosphorylation of EGFR” value (RPTPβ/ζ knocked down with shRNA)?
A: The value was “failed to stimulate”.

Q: And the “increase” value (cells transfected with pSM2 control vector)?
A: The value was roughly 5 fold.

Q: And the “increase” value (two minutes after PTN)?
A: The value was “about 5.8 fold”.
